Laboratory results: patent US20240369491A1

B1: Cys-SBP (peptide)
peptide: CIEEQAKTFLDKFNHEAEDLFYQS
modifications: not checked
B2: Cys-SBP-PEG4 (peptide)
peptide: CIEEQAKTFLDKFNHEAEDLFYQS
modifications: not checked

Molecular target: SARS-CoV-2 Spike RBD-His (Cat #: 40592-V08B) (SARS-CoV-2), P0DTC2

Row | Binder | N:Au ratio (XPS) after RBD binding
1 | B1 | 1.31
2 | B2 | 1.45
